Assay results published in article PMC12776482, “Structural and Functional Analysis of GGPPS Inhibition as a Therapeutic Mechanism for Acute Myeloid Leukemia (AML)” (Research Square, 2025).

Target: the molecule itself
Experiment: mass photometry; purified wild-type recombinant human GGPPS in solution; conditions not shown (Fig. S2)

B1: wild-type recombinant human geranylgeranyl pyrophosphate synthase (GGPPS) (enzyme)
chain: MEKTQETVQRILLEPYKYLLQLPGKQVRTKLSQAFNHWLKVPEDKLQIIIEVTEMLHNASLLIDDIEDNSKLRRGFPVAHSIYGIPSVINSANYVYFLGLEKVLTLDHPDAVKLFTRQLLELHQGQGLDIYWRDNYTCPTEEEYKAMVLQKTGGLFGLAVGLMQLFSDYKEDLKPLLNTLGLFFQIRDDYANLHSKEYSENKSFCEDLTEGKFSFPTIHAIWSRPESTQVQNILRQRTENIDIKKYCVHYLEDVGSFEYTRNTLKELEAKAYKQIDARGGNPELVALVKHLSKMFKEENE
notes: human geranylgeranyl pyrophosphate synthase (GGPPS, GGPS1), wild type; His6 tag removed with TEV protease; also called GGPP synthase; hGGPPS; source: E. coli (BL21 DE3), purified (Ni-NTA, TEV cleavage, second Ni-NTA, Superdex 200); not shown: His6, N-terminal, cleaved
In the case of B1, the “stoichiometry N” value is reported as 6.
